Values of other authors in PMC1976947.

Molecular target: G-CSF receptor (Mus musculus) (UniProt P40223)
Chain of UniProt P40223 (P40223 26-837): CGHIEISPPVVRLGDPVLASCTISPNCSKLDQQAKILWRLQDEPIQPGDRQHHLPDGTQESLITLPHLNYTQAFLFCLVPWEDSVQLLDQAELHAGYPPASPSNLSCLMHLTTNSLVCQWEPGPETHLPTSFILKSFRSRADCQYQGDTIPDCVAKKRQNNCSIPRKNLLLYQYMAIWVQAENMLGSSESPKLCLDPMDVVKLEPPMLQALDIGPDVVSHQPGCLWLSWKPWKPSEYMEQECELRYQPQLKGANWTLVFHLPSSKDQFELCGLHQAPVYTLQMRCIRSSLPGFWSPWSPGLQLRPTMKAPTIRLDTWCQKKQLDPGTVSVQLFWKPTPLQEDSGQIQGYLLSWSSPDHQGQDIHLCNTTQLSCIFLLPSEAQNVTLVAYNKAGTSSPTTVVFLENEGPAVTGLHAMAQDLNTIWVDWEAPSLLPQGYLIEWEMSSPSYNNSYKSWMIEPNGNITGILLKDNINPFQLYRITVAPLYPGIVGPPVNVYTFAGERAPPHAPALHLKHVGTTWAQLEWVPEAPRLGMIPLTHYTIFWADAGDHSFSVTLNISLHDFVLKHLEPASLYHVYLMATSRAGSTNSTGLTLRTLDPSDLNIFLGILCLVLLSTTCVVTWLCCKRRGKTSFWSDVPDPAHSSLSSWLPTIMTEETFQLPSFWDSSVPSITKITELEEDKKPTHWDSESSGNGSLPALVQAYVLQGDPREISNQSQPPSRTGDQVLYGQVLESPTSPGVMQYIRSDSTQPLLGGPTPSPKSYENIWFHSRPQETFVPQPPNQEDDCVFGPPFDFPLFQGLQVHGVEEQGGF

Chain of G-CSF (P09919 31-207): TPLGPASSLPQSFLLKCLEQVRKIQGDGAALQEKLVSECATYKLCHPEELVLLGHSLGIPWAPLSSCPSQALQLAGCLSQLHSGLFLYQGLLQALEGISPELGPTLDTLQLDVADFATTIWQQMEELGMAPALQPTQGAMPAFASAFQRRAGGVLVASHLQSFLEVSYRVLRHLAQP

In the case of G-CSF (from UniProt P09919), the Kd is given as 0.07 nM.
